Measurements from paper PMC2556791 (The Journal of Experimental Medicine, 2008).
Each block holds one molecule with its values, some of them ahead of it.

Tests used:
[1] = target: mCMKLR1-HA on L1.2 transfectants (mouse) (UniProt P97468); assay: radioligand binding
[2] = target: mCCRL2 on freshly isolated mouse peritoneal mast cells (mouse (endogenous in peritoneal mast cells)) (UniProt O35457); assay: flow cytometry on cells
[3] = target: huCCRL2-HA on L1.2 transfectants (human); assay: radioligand binding
[4] = target: T1, mCMKLR1-HA on L1.2 transfectants (mouse, UniProt P97468 1-371); assay: radioligand binding
T1 sequence (looked up): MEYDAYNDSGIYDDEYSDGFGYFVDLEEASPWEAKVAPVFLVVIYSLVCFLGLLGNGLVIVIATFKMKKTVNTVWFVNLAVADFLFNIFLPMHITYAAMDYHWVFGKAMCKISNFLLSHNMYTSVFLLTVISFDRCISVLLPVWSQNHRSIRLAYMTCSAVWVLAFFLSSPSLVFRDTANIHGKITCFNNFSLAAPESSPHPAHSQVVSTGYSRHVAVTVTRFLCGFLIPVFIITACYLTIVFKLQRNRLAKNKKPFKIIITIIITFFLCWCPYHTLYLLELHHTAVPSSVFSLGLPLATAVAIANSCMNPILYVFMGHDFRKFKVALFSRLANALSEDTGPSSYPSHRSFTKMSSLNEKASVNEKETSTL

[5] = target: huCCRL2-HA on L1.2 transfectants (human); assay: flow cytometry on cells
[6] = target: T2, mCCRL2-HA on L1.2 transfectants (mouse, UniProt O35457 1-360); assay: flow cytometry on cells
T2 sequence (looked up): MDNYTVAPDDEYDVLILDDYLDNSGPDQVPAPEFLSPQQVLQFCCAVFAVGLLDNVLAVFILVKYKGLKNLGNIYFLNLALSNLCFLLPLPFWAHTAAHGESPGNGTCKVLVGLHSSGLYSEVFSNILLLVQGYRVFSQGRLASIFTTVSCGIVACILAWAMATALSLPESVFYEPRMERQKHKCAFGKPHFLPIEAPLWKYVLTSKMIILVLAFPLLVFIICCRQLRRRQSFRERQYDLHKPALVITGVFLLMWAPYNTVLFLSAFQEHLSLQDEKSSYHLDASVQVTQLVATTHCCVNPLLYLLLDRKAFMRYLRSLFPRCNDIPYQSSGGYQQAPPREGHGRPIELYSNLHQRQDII

[7] = target: T2, mCCRL2-HA on L1.2 transfectants; assay: radioligand binding

EC50 [1]: 26.3 nM
Molecule: C-terminal His8-tagged serum form human chemerin (NH2-ADPELTE……-COOH) (from UniProt Q99969 21-155) (ligand)

EC50 [2]: 21 nM | EC50 [1]: 3.1 nM | EC50 [3]: 0.2 nM
Molecule: chemerin (unlabeled; form not specified) (from UniProt Q99969 21-157) (ligand)

EC50 [5]: 7 nM | EC50 [6]: 45 nM
B2: untagged serum form human chemerin (NH2-ADPELTE…FAPH-COOH) (ligand)
chain: ADPELTEAQRRGLQVALEEFHKHPPVQWAFQETSVESAVDTPFPAGIFVRLEFKLQQTSCRKRDWKKPECKVRPNGRKRKCLACIKLGSEDKVLGRLVHCPIETQVLREAEEHQETQCLRVQRAGEDPHSFYFPGQFAPH

Further lines, the molecule ahead of its results:

B1: bioactive 9-mer carboxyl-terminal chemerin peptide (residues 149–157, YFPGQFAFS) (peptide)
peptide: YFPGQFAFS
EC50 [4]: 26.2 nM

B3: 125I-chemerin (residues 21–148) (ligand, human, UniProt Q99969 21-148, looked up)
chain: ELTEAQRRGLQVALEEFHKHPPVQWAFQETSVESAVDTPFPAGIFVRLEFKLQQTSCRKRDWKKPECKVRPNGRKRKCLACIKLGSEDKVLGRLVHCPIETQVLREAEEHQETQCLRVQRAGEDPHSF
modifications: 125I (radioiodinated; specific activity 97 Ci/g)
Kd [7]: 1.6 nM
